Experimental data as given in the RNAGym collection of RNA variant scans (doi:10.7554/elife.90254).

B1: LINE1-full (parent)
chain: UACGUAGGUGGUUUUCCCCUGAUAGUGCUAAGGGGGCCUGGAAGUUUGGACUGGGCAGAGCUCAACACAGCGUGGCAAAGUGGCUGUGGCUAGACUGCCUCUCUGGAUUCCUCGUCACUCAGCAGGGCAUCUCUGAGAGAAAUGCC

Variants of: B1
Assay: self-cleavage, relative activity (ratio to wild type); higher = more cleavage; in vitro, sequencing; the parent is a self-cleaving ribozyme
Work on UACGUAGGUGGUUUUCCCCUGAUAGUGCUAAGGGGGCCUGGAAGUUUGGACUGGGCAGAGCUCAACACAGCGCGGCAAAGUGGCUGUGGCUAGACUGCCUCUCUGGAUUCCUCGUCACUCAGCAGUGCAUCUCUGAGAGAAAUGCC yielded a self-cleavage of 1.85. Variant UACGUAGGUGGUUUUCCCCUGAUAGUGCUAAGGGGGCCUGGAAGUUUGGACUGGGCAGAGCUCAACACAGCGCGGCAAAGUGGCUGUGGCUAGACUGCCUCUCUGGAUUCCUCGUCACUCAGCAGAGCAUCUCUGAGAGAAAUGCC has a self-cleavage of 2.44. UACGUAGGUGGUUUUCCCCUGAUAGUGCUAAGGGGGCCUGGAAGUUUGGACUGGGCAGAGCUCAACACAGCGCGGCAAAGUGGCUGUGGCUAGACUGCCUCUCUGGAUUCCUCGUCACUCAGCAGGGCAUCUCUGAUAGAAAUGCC showed a self-cleavage of 2.46. With UACGUAGGUGGUUUUCCCCUGAUAGUGCUAAGGGGGCCUGGAAGUUUGGACUGGGCAGAGCUCAACACAGCGCGGCAAAGUGGCUGUAGCUAGACUGCCUCUCUGGAUUCCUCGUCACUCAGCAGGGCAUCUCUGAGAGAAAUGCC the self-cleavage was 0.06. For UACGUAGGUGGUUUUCCCCUGAUAGUGCUAAGGGGGCCUGGAAGUUUGGACUGGGCAGAGCUCAACACAGCGCGGCAAAGUGGCUGUGGCUAGACUGCCUCUCUGGAUUCCUCGUCACUCAGCAGGGCAUCUCUAAGAGAAAUGCC, the self-cleavage was 1.07. UACGUAGGUGGUUUUCCCCUGAUAGUGCUAAGGGGGCCUGGAAGUUUGGACUGGGCAGAGCUCAACACAGCGCGGCAAAGUGGCUGUGGCUAGACUGCCUCUCUGGAUUCCUCGUCACUCAACAGGGCAUCUCUGAGAGAAAUGCC showed a self-cleavage of 1.19. UACGUAGGUGGUUUUCCCCUGAUAGUGCUAAGGGGGCCUGGAAGUUUGGACUGGGCAGAGCUCAACACAGCGCGGCAAAGUGACUGUGGCUAGACUGCCUCUCUGGAUUCCUCGUCACUCAGCAGGGCAUCUCUGAGAGAAAUGCC showed a self-cleavage of 1.63. UACGUAGGUGGUUUUCCCCUGAUAGUGCUAAGGGGGCCUGGAAGUUUGGACUGGGCAGAGCUCAACACAGCGCGGCAAAGUGGCAGUGGCUAGACUGCCUCUCUGGAUUCCUCGUCACUCAGCAGGGCAUCUCUGAGAGAAAUGCC gave a self-cleavage of 0.08. With UACGUAGGUGGUUUUCCCCUGAUAGUGCUAAGGGGGCCUGGAAGUUUGGACUGGGCAGAGCUCAACACAGCGCUGCAAAGUGGCUGUGGCUAGACUGCCUCUCUGGAUUCCUCGUCACUCAGCAGGGCAUCUCUGAGAGAAAUGCC the self-cleavage was 1.64. UACGUAGGUGGUUUUCCCCUGAUAGUGCUAAGGGGGCCUGGAAGUUUGGACUGGGCAGAGCUCAACACAGCGCGGCAAAGUGGCUGUGGCAAGACUGCCUCUCUGGAUUCCUCGUCACUCAGCAGGGCAUCUCUGAGAGAAAUGCC showed a self-cleavage of 0.57. With UACGUAGGUGGUUUUCCCCUGAUAGUGCUAAGGGGGCCUGGAAGUUUGGACUGGGCAGAGCUCAACACAGCGCGGCAAAGUGGCUGUGGCUAGACUGCCUCUCUGGAUUCCUCGUCACUCAGCAGGGCAUCUCUGAGAUAAAUGCC the self-cleavage was 2.83. UACGUAGGUGGUUUUCCCCUGAUAGUGCUAAGGGGGCCUGGAAGUUUGGACUGGGCAGAGCUCAACACAGCGCGGCAAAGUGGCUGUGGCUAGACUGCCUCUCUGGAUUCCUCGUCACUCAGCAAGGCAUCUCUGAGAGAAAUGCC gave a self-cleavage of 0.8. In the case of UACGUAGGUGGUUUUCCCCUGAUAGUGCUAAGGGGGCCUGGAAGUUUGGACUGGGCAGAGCUCAACACAGCGCGGCAAAGUGGCUGUGGCUAGACUGCCUCUCUGGAUUCCUCGUCACUCAGCACGGCAUCUCUGAGAGAAAUGCC, the self-cleavage is reported as 2.47. For UACGUAGGUGGUUUUCCCCUGAUAGUGCUAAGGGGGCCUGGAAGUUUGGACUGGGCAGAGCUCAACACAGCGCGGCAAAGUGGCUUUGGCUAGACUGCCUCUCUGGAUUCCUCGUCACUCAGCAGGGCAUCUCUGAGAGAAAUGCC, the self-cleavage was 0.03. In the case of UACGUAGGUGGUUUUCCCCUGAUAGUGCUAAGGGGGCCUGGAAGUUUGGACUGGGCAGAGCUCAACACAGCGCGGCAAAGUGGCUGUGGCUAGACCGCCUCUCUGGAUUCCUCGUCACUCAGCAGGGCAUCUCUGAGAGAAAUGCC, the self-cleavage is reported as 0.11. UACGUAGGUGGUUUUCCCCUGAUAGUGCUAAGGGGGCCUGGAAGUUUGGACUGGGCAGAGCUCAACACAGCGCGGCAAAGUGGCUGUGGCUAGACGGCCUCUCUGGAUUCCUCGUCACUCAGCAGGGCAUCUCUGAGAGAAAUGCC gave a self-cleavage of 0.19. UACGUAGGUGGUUUUCCCCUGAUAGUGCUAAGGGGGCCUGGAAGUUUGGACUGGGCAGAGCUCAACACAGCGCGGCAAAGUGGCUGUGGCUAGACAGCCUCUCUGGAUUCCUCGUCACUCAGCAGGGCAUCUCUGAGAGAAAUGCC gave a self-cleavage of 0.14. In the case of UACGUAGGUGGUUUUCCCCUGAUAGUGCUAAGGGGGCCUGGAAGUUUGGACUGGGCAGAGCUCAACACAGCGCGGCAAAGUGGCUGUGGCUAGACUGCCUCUCUGGAUUCCUCGUCACUCAGCAGGUCAUCUCUGAGAGAAAUGCC, the self-cleavage is reported as 0.92. In the case of UACGUAGGUGGUUUUCCCCUGAUAGUGCUAAGGGGGCCUGGAAGUUUGGACUGGGCAGAGCUCAACACAGCGCGGCAAAGAGGCUGUGGCUAGACUGCCUCUCUGGAUUCCUCGUCACUCAGCAGGGCAUCUCUGAGAGAAAUGCC, the self-cleavage is reported as 2.36. Variant UACGUAGGUGGUUUUCCCCUGAUAGUGCUAAGGGGGCCUGGAAGUUUGGACUGGGCAGAGCUCAACACAGCGCGGCAAAGGGGCUGUGGCUAGACUGCCUCUCUGGAUUCCUCGUCACUCAGCAGGGCAUCUCUGAGAGAAAUGCC has a self-cleavage of 2.04.
